Consider 5 molecules from PMC9000958, “Sticks and Stones, a conserved cell surface ligand for the Type IIa RPTP Lar, regulates neural circuit wiring in Drosophila” (eLife, 2022).

Assay [1] addresses Sticks and Stones (Sns), ectopically expressed in Tub>Sns embryos (Drosophila). Put plainly: immunostaining of cells or tissue; live-dissected stage 16 embryos (WT or Tub-GAL4 overexpression) incubated 2 hr at room temperature with AP or AP5 fusion protein supernatants (1x or concentrated), fixed in 4% paraformaldehyde, detected with anti-AP antibody; staining intensity compared with WT embryos.

The target of assay [2] is Nephrin or Sns (expressed in Tub>NPHS1 or Tub>Sns embryos). The description is as above.
In assay [3] the target is Lar-Fc fusion protein (Drosophila) (UniProt P16621). In words: ELISA; ECIA: Fc fusion bait (1x supernatant) captured by anti-human IgG (Fc-specific) on plate; AP5 fusion prey (1x supernatant) pre-clustered with anti-AP:biotin, overnight at room temperature; streptavidin:HRP, TMB, absorbance at 450 nm. Background: An ELISA detects its analyte on a solid surface through an enzyme-linked reagent.

Assay [4] addresses Lar, ectopically expressed in Tub>Lar embryos (Drosophila) (UniProt P16621). Put plainly: immunostaining of cells or tissue; live-dissected stage 16 embryos (WT or Tub-GAL4 overexpression) incubated 2 hr at room temperature with AP or AP5 fusion protein supernatants (1x or concentrated), fixed in 4% paraformaldehyde, detected with anti-AP antibody; staining intensity compared with WT embryos.

The target of assay [5] is T1, human Nephrin, ectopically expressed in Tub>NPHS1 embryos (human, UniProt O60500 23-1241).
T1 construct: source: Drosophila embryos, UAS-linked full-length human Nephrin cDNA driven by Tub-GAL4, live-dissected stage 16
T1 sequence (looked up): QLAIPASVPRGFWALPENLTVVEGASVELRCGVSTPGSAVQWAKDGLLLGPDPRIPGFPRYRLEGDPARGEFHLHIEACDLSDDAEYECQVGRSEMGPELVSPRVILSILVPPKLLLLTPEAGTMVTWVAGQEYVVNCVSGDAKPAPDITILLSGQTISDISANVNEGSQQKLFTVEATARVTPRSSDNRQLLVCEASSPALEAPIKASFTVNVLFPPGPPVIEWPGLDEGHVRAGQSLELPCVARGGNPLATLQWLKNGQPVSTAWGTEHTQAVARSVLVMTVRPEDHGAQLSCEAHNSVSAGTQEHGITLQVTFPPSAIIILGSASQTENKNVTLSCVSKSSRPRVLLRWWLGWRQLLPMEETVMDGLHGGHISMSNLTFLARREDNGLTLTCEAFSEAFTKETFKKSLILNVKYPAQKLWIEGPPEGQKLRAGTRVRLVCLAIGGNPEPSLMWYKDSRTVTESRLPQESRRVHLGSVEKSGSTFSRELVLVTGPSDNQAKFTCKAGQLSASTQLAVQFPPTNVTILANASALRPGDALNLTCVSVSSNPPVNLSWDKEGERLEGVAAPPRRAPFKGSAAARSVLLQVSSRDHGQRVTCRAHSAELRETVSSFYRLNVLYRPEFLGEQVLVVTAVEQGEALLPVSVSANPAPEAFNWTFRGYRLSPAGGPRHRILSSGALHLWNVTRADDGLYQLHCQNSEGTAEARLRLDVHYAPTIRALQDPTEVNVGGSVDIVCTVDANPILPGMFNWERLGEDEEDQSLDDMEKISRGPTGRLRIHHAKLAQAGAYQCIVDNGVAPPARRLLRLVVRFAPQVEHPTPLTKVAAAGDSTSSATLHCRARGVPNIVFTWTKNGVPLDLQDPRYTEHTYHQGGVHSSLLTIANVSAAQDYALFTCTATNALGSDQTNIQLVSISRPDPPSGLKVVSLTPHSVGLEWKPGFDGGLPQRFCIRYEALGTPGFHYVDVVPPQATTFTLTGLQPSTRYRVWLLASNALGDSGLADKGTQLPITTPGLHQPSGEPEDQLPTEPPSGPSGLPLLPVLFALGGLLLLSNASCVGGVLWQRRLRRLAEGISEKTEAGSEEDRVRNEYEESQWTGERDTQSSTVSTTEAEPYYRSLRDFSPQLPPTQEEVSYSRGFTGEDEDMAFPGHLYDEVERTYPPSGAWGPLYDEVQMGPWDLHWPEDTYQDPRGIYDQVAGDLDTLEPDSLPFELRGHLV
The description is as above. Particulars: partners not purified.

For assay [6], the target named is Sns-AP5 fusion protein (Drosophila). In words: ELISA; ECIA with mi3 particles: AP5 bait (10 ng/ul) on streptavidin-coated plate; mi3 particles or Fc fusion proteins as prey at 10 ng/ul or 1x, overnight at room temperature; detected with anti-LAR or anti-human IgG (Fc) and anti-mouse:AP, BluePhos, absorbance at 650 nm; mi3 preys were purified, purification of bait not told.

With “Lar^HS2-alkaline phosphatase fusion protein (from UniProt P16621 33-1377) (domain or fragment)”, the fold increase in staining vs. WT embryos in assay [1] is more than 10 fold. The molecule “PTPRF-AP5 fusion protein (from UniProt P10586 30-1263) (domain or fragment)” registered a fold increase in staining vs. WT embryos in assay [2] of 18 to 20 fold. With “Sns-AP5 fusion protein (domain or fragment)”, in assay [3], the fold higher binding signal is 3 fold. Further, the fold increase in staining vs. WT embryos in assay [4] came out at 3 fold.

B1: PTPRD-AP5 fusion protein (domain or fragment, human, UniProt P23468 21-1265, looked up)
chain: ETPPRFTRTPVDQTGVSGGVASFICQATGDPRPKIVWNKKGKKVSNQRFEVIEFDDGSGSVLRIQPLRTPRDEAIYECVASNNVGEISVSTRLTVLREDQIPRGFPTIDMGPQLKVVERTRTATMLCAASGNPDPEITWFKDFLPVDTSNNNGRIKQLRSESIGGTPIRGALQIEQSEESDQGKYECVATNSAGTRYSAPANLYVRELREVRRVPPRFSIPPTNHEIMPGGSVNITCVAVGSPMPYVKWMLGAEDLTPEDDMPIGRNVLELNDVRQSANYTCVAMSTLGVIEAIAQITVKALPKPPGTPVVTESTATSITLTWDSGNPEPVSYYIIQHKPKNSEELYKEIDGVATTRYSVAGLSPYSDYEFRVVAVNNIGRGPPSEPVLTQTSEQAPSSAPRDVQARMLSSTTILVQWKEPEEPNGQIQGYRVYYTMDPTQHVNNWMKHNVADSQITTIGNLVPQKTYSVKVLAFTSIGDGPLSSDIQVITQTGVPGQPLNFKAEPESETSILLSWTPPRSDTIANYELVYKDGEHGEEQRITIEPGTSYRLQGLKPNSLYYFRLAARSPQGLGASTAEISARTMQSKPSAPPQDISCTSPSSTSILVSWQPPPVEKQNGIITEYSIKYTAVDGEDDKPHEILGIPSDTTKYLLEQLEKWTEYRITVTAHTDVGPGPESLSVLIRTNEDVPSGPPRKVEVEAVNSTSVKVSWRSPVPNKQHGQIRGYQVHYVRMENGEPKGQPMLKDVMLADAQWEFDDTTEHDMIISGLQPETSYSLTVTAYTTKGDGARSKPKLVSTTGAVPGKPRLVINHTQMNTALIQWHPPVDTFGPLQGYRLKFGRKDMEPLTTLEFSEKEDHFTATDIHKGASYVFRLSARNKVGFGEEMVKEISIPEEVPTGFPQNLHSEGTTSTSVQLSWQPPVLAERNGIITKYTLLYRDINIPLLPMEQLIVPADTTMTLTGLKPDTTYDVKVRAHTSKGPGPYSPSVQFRTLPVDQVFAKNFHVKAVMKTSVLLSWEIPENYNSAMPFKILYDDGKMVEEVDGRATQKLIVNLKPEKSYSFVLTNRGNSAGGLQHRVTAKTAPDVLRTKPAFIGKTNLDGMITVQLPEVPANENIKGYYIIIVPLKKSRGKFIKPWESPDEMELDELLKEISRKRRSIRYGREVELKPYIAAHFDVLPTEFTLGDDKHYGGFTNKQLQSGQEYVFFVLAVMEHAESKMYATSPYSDPVVSMDLDPQPITDEEE
notes: human PTPRD extracellular domain, amplified from a full-length cDNA; also called PTPδ; source: Drosophila S2 cells, transfected, supernatant
Consider B1, for which, in assay [5], the “fold increase in staining vs. WT embryos” value amounted to 3 fold.

B2: 60-mer Lar particles on the mi3 nanoparticle scaffold (Fc fusion)
chain: AHPPEIIRKPQNQGVRVGGVASFYCAARGDPPPSIVWRKNGKKVSGTQSRYTVLEQPGGISILRIEPVRAGRDDAPYECVAENGVGDAVSADATLTIYEGDKTPAGFPVITQGPGTRVIEVGHTVLMTCKAIGNPTPNIYWIKNQTKVDMSNPRYSLKDGFLQIENSREEDQGKYECVAENSMGTEHSKATNLYVKVRRVPPTFSRPPETISEVMLGSNLNLSCIAVGSPMPHVKWMKGSEDLTPENEMPIGRNVLQLINIQESANYTCIAASTLGQIDSVSVVKVQSLPTAPTDVQISEVTATSVRLEWSYKGPEDLQYYVIQYKPKNANQAFSEISGIITMYYVVRALSPYTEYEFYVIAVNNIGRGPPSAPATCTTGETKMESAPRNVQVRTLSSSTMVITWEPPETPNGQVTGYKVYYTTNSNQPEASWNSQMVDNSELTTVSELTPHAIYTVRVQAYTSMGAGPMSTPVQVKAQQGVPSQPSNFRATDIGETAVTLQWTKPTHSSENIVHYELYWNDTYANQAHHKRISNSEAYTLDGLYPDTLYYIWLAARSQRGEGATTPPIPVRTKQYVPGAPPRNITAIATSSTTISLSWLPPPVERSNGRIIYYKVFFVEVGREDDEATTMTLNMTSIVLDELKRWTEYKIWVLAGTSVGDGPRSHPIILRTQEDVPGDPQDVKATPLNSTSIHVSWKPPLEKDRNGIIRGYHIHAQELRDEGKGFLNEPFKFDVVDTLEFNVTGLQPDTKYSIQVAALTRKGDGDRSAAIVVKTPGGVPVRPTVSLKIMEREPIVSIELEWERPAQTYGELRGYRLRWGVKDQALKEEMLSGPQMTKKRFDNLERGVEYEFRVAGSNHIGIGQETVKIFQTPEGTPGGPPSNITIRFQTPDVLCVTWDPPTREHRNGIITRYDVQFHKKIDHGLGSERNMTLRKAVFTNLEENTEYIFRVRAYTKQGAGPFSDKLIVETERDMGRAPMSLQAEATSEQTAEIWWEPVTSRGKLLGYKIFYTMTAVEDLDDWQTKTVGLTESADLVNLEKFAQYAVAIAARFKNGLGRLSEKVTVRIKPEDVPLNLRAHDVSTHSMTLSWSPPIRLTPVNYKISFDAMKVFVDSQGFSQTQIVPKREIILKHYVKTHTINELSPFTTYNVNVSAIPSDYSYRPPTKITVTTQMAAPQPMVKPDFYGVVNGEEILVILPQASEEYGPISHYYLVVVPEDKSNLHKIPDQFLTDDLLPGRNKPERPNAPYIAAKFPQRSIPFTFHLGSGDDYHNFTNRKLEREKRYRIFVRAVVDTPQKHLYTSSPFSEFLSLDMREAPPGERPHRPDPNWPAEPEVSVNRNKDEPE
In assay [6], B2 had a fold increase in binding signal of 7 fold and a fold weaker binding signal than Kirre on Sns-AP5 of 2 fold.
